Experimental findings from US20180193413A1 (UNIVERSITY OF BRITISH COLUMBIA, published 2018) are described below.

Bridges are numbered along the chain shown (N, C = ends). Where no end group is shown, it is not given here.

Assay [1] has as its target T1, Human pancreatic α-amylase (human, UniProt P04746 16-511).
T1 construct: Recombinant, secreted from Pichia pastoris, purified and deglycosylated; also called HPA; human pancreatic alpha amylase
T1 sequence: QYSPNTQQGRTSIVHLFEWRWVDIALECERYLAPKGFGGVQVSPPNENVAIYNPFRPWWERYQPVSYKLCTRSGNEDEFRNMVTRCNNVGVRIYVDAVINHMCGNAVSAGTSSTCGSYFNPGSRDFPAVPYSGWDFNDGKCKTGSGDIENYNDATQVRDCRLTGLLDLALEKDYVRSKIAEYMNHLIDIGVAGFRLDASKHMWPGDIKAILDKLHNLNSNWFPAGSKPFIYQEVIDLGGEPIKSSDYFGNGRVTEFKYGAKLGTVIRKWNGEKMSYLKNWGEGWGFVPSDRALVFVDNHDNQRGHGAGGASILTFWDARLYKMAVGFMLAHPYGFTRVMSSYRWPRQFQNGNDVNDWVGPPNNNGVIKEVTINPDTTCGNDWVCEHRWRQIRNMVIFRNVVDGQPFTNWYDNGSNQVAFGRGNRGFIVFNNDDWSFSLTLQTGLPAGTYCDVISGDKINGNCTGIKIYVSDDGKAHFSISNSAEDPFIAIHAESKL
The assay is described as follows: enzyme kinetics (CNP-G3 hydrolysis), Morrison tight-binding fit, competitive inhibition; recombinant helianthamide.

The target of assay [2] is T2, Porcine pancreatic α-amylase (porcine, UniProt P00690 16-511).
T2 construct: Bought enzyme; also called PPA
T2 sequence: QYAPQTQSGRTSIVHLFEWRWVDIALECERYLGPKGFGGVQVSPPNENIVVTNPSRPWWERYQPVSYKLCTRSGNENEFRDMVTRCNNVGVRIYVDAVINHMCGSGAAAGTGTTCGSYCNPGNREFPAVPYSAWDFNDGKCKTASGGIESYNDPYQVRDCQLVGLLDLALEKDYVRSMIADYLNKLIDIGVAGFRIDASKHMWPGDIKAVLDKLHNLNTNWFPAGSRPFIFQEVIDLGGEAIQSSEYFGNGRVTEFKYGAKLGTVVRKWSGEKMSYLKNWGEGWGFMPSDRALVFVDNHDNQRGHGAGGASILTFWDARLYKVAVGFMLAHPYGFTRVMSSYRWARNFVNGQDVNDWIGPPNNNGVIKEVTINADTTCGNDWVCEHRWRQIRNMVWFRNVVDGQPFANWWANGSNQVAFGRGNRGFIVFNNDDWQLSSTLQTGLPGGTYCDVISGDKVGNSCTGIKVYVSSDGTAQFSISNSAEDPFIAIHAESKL
Kind of assay: enzyme kinetics, inhibition of glycosidase activity.

Assay [3] has as its target T3, T163R HPA mutant (human, UniProt P04746 16-511).
T3 construct: it may be shifted against the precursor entry
T3 sequence: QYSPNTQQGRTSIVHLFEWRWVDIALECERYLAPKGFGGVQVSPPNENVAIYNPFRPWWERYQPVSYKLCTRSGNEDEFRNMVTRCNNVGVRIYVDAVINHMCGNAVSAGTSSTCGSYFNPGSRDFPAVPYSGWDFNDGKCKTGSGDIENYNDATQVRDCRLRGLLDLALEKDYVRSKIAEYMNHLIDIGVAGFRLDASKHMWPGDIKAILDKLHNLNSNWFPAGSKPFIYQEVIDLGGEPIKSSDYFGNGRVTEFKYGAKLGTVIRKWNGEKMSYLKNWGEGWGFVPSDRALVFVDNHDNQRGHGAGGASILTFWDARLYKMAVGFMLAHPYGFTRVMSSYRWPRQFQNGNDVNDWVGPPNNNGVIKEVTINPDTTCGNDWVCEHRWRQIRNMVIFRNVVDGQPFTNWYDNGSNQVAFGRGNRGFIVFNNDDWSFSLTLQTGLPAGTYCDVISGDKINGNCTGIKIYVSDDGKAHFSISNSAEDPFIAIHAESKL
Kind of assay: enzyme kinetics, Ki against T163R HPA compared with HPA.

The target in assay [4] is T3, T163R HPA mutant. The assay is described as follows: enzyme kinetics (CNP-G3 hydrolysis), uncleaved bar′ fusion.
The target in assay [5] is T1, Human pancreatic α-amylase. Described as above.
The target of assay [6] is T1, Human pancreatic α-amylase. The assay is described as follows: enzyme kinetics, Ki of bar′ fusion mutants against HPA.

B1: Helianthamide (peptide)
peptide: ESGNSCYIYHGVSGICKASCAEDEKAMAGMGVCEGHLCCYKTPW
modifications: disulfide 16-33, 20-39, 6-38
notes: 44-residue peptide with three disulfide bonds in a 1-5, 2-4, 3-6 pattern (C6-C38, C16-C33, C20-C39); crystal structure with PPA; also called recombinant Helianthamide; synthetic Helianthamide
In the case of B1, the Ki in assay [1] came out at 0.01 nM; in assay [2] it was 0.1 nM.

B2: bar′-Helianthamide fusion (other)
chain: ESGNSCYIYHGVSGICKASCAEDEKAMAGMGVCEGHLCCYKTPW
modifications: not fully specified (N-terminus); ends and bridges not checked
notes: Uncleaved fusion secreted from E. coli BL21*(DE3), purified on nickel; The text says that the junction is a TEV site; also called barnase′-helianthamide
Regarding B2, the “fold decrease in potency (against wild-type HPA)” value in the assay with T163R HPA mutant [3] is 20 fold. In addition, the Ki in the assay with T163R HPA mutant [4] came to 20 nM; in assay [5], 0.9 nM.

B3: Bar′-Y7A (other)
chain: ESGNSCAIYHGVSGICKASCAEDEKAMAGMGVCEGHLCCYKTPW
modifications: not fully specified (N-terminus); ends and bridges not checked
notes: Tested as uncleaved fusion; also called Y7A mutant of Helianthamide in bar′-Helianthamide fusion form
B3: the Ki turned out to be 107 nM with T163R HPA mutant [4] and 5 nM in assay [5].

B4: Bar′-H10A (other)
chain: ESGNSCYIYAGVSGICKASCAEDEKAMAGMGVCEGHLCCYKTPW
modifications: not fully specified (N-terminus); ends and bridges not checked
notes: Tested as uncleaved fusion; also called H10A mutant of Helianthamide in bar′-Helianthamide fusion form
As for B4, the Ki in the assay with T163R HPA mutant [4] turned out to be 321 nM; in assay [5], 15 nM.

B5: Bar′-Y9A (other)
chain: ESGNSCYIAHGVSGICKASCAEDEKAMAGMGVCEGHLCCYKTPW
modifications: not fully specified (N-terminus); ends and bridges not checked
notes: Tested as uncleaved fusion; also called Y9A mutant of Helianthamide in bar′-Helianthamide fusion form
Regarding B5, the Ki in the assay with T163R HPA mutant [4] is 960 nM; in assay [5] it was 47 nM. Moreover, the “fold decrease in potency (against the bar′-Helianthamide fusion)” value in assay [6] stood at 50 fold.
